Test results from paper PMC11982464, “Structural insight into the catalytic mechanism of the bifunctional enzyme L-fucokinase/GDP-fucose pyrophosphorylase” (The Journal of Biological Chemistry, 2025).

Columns and labels:
[1] = tested on: C[C@@H]1O[C@H](OP(=O)(O)O)[C@@H](O)[C@H](O)[C@@H]1O; assay: purified protein; conditions: co-substrate GTP, 50 mM Hepes pH 7.5, 2 mM MgCl2
[2] = target: the molecule itself; assay: AUC + SEC-MALS; SV-AUC at 20 °C, about 0.5 mg/ml, 50 mM Tris pH 8.0, 150 mM NaCl, 40,000 rpm; SEC-MALS at 1 mg/ml in 50 mM Tris pH 8.0, 150 mM NaCl, ENrich SEC 650 column
[3] = GDP-fucose pyrophosphorylase site

FKP-FL (L-fucokinase/GDP-β-L-fucose pyrophosphorylase, full length) (Bacteroides fragilis)
Km [1, 3]: 40 ± 4 µM | kcat [1, 3]: 5.6 ± 0.3 s⁻¹ | kcat/Km [1, 3]: 140000 M⁻¹ s⁻¹

SUMO-FKP-NTD (Bacteroides fragilis)
Km [1]: 80 ± 8 µM

B1: C-terminal domain of FKP (FKP-CTD), individually prepared (domain or fragment, Bacteroides fragilis 9343, UniProt Q58T34 518-949, looked up)
chain: MPELLPEDALQMSRIHNRMLRARILKLDGKDYRPEEQAAFDLLRDGLLDGISNRKSTPKLDVYSDQIVWGRSPVRIDMAGGWTDTPPYSLYSGGNVVNLAIELNGQPPLQVYVKPCKDFHIVLRSIDMGAMEIVSTFDELQDYKKIGSPFSIPKAALSLAGFAPAFSAVSYASLEEQLKDFGAGIEVTLLAAIPAGSGLGTSSILASTVLGAINDFCGLAWDKNEICQRTLVLEQLLTTGGGWQDQYGGVLQGVKLLQTEAGFAQSPLVRWLPDHLFTHPEYKDCHLLYYTGITRTAKGILAEIVSSMFLNSSLHLNLLSEMKAHALDMNEAIQRGSFVEFGRLVGKTWEQNKALDSGTNPPAVEAIIDLIKDYTLGYKLPGAGGGGYLYMVAKDPQAAVRIRKILTENAPNPRARFVEMTLSDKGFQVSRS
notes: L-fucokinase/GDP-fucose pyrophosphorylase (FKP), Bacteroides fragilis 9343, GenBank AY849806, C-terminal domain 518-949 (the abstract says 519-949); The calculated mass is printed as 49 kDa; The abstract gives 519-949, the results 518-949; source: E. coli BL21 (DE3), purified (HiTrap chelating HP, Superdex 200 gel filtration)
stoichiometry N [2]: 2

B2: full-length L-fucokinase/GDP-β-L-fucose pyrophosphorylase (FKP-FL) from Bacteroides fragilis 9343 (enzyme, UniProt Q58T34 1-949, looked up)
chain: MQKLLSLPSNLVQSFHELERVNRTDWFCTSDPVGKKLGSGGGTSWLLEECYNEYSDGATFGEWLEKEKRILLHAGGQSRRLPGYAPSGKILTPVPVFRWERGQHLGQNLLSLQLPLYEKIMSLAPDKLHTLIASGDVYIRSEKPLQSIPEADVVCYGLWVDPSLATHHGVFASDRKHPEQLDFMLQKPSLAELESLSKTHLFLMDIGIWLLSDRAVEILMKRSHKESSEELKYYDLYSDFGLALGTHPRIEDEEVNTLSVAILPLPGGEFYHYGTSKELISSTLSVQNKVYDQRRIMHRKVKPNPAMFVQNAVVRIPLCAENADLWIENSHIGPKWKIASRHIITGVPENDWSLAVPAGVCVDVVPMGDKGFVARPYGLDDVFKGDLRDSKTTLTGIPFGEWMSKRGLSYTDLKGRTDDLQAVSVFPMVNSVEELGLVLRWMLSEPELEEGKNIWLRSEHFSADEISAGANLKRLYAQREEFRKGNWKALAVNHEKSVFYQLDLADAAEDFVRLGLDMPELLPEDALQMSRIHNRMLRARILKLDGKDYRPEEQAAFDLLRDGLLDGISNRKSTPKLDVYSDQIVWGRSPVRIDMAGGWTDTPPYSLYSGGNVVNLAIELNGQPPLQVYVKPCKDFHIVLRSIDMGAMEIVSTFDELQDYKKIGSPFSIPKAALSLAGFAPAFSAVSYASLEEQLKDFGAGIEVTLLAAIPAGSGLGTSSILASTVLGAINDFCGLAWDKNEICQRTLVLEQLLTTGGGWQDQYGGVLQGVKLLQTEAGFAQSPLVRWLPDHLFTHPEYKDCHLLYYTGITRTAKGILAEIVSSMFLNSSLHLNLLSEMKAHALDMNEAIQRGSFVEFGRLVGKTWEQNKALDSGTNPPAVEAIIDLIKDYTLGYKLPGAGGGGYLYMVAKDPQAAVRIRKILTENAPNPRARFVEMTLSDKGFQVSRS
notes: The calculated mass is printed as 108 kDa; also called L-fucokinase/GDP-fucose pyrophosphorylase; source: E. coli BL21 (DE3), purified (HiTrap chelating HP, Superdex 200 gel filtration)
stoichiometry N [2]: 4
